B1: CTF3: COUP-TF3 (NR2F6), cDNA driver (protein, UniProt P10588 1-404, looked up)
Nuclear receptor subfamily 2 …: MAMVTGGWGGPGGDTNGVDKAGGYPRAAEDDSASPPGAASDAEPGDEERPGLQVDCVVCGDKSSGKHYGVFTCEGCKSFFKRSIRRNLSYTCRSNRDCQIDQHHRNQCQYCRLKKCFRVGMRKEAVQRGRIPHSLPGAVAASSGSPPGSALAAVASGGDLFPGQPVSELIAQLLRAEPYPAAAGRFGAGGGAAGAVLGIDNVCELAARLLFSTVEWARHAPFFPELPVADQVALLRLSWSELFVLNAAQAALPLHTAPLLAAAGLHAAPMAAERAVAFMDQVRAFQEQVDKLGRLQVDSAEYGCLKAIALFTPDACGLSDPAHVESLQEKAQVALTEYVRAQYPSQPQRFGRLLLRLPALRAVPASLISQLFFMRLVGKTPIETLIRDMLLSGSTFNWPYGSGQ
B2: CTF2: COUP-TF2 (NR2F2), cDNA driver (protein, UniProt P24468 1-414, looked up)
COUP transcription factor 2: MAMVVSTWRDPQDEVPGSQGSQASQAPPVPGPPPGAPHTPQTPGQGGPASTPAQTAAGGQGGPGGPGSDKQQQQQHIECVVCGDKSSGKHYGQFTCEGCKSFFKRSVRRNLSYTCRANRNCPIDQHHRNQCQYCRLKKCLKVGMRREAVQRGRMPPTQPTHGQFALTNGDPLNCHSYLSGYISLLLRAEPYPTSRFGSQCMQPNNIMGIENICELAARMLFSAVEWARNIPFFPDLQITDQVALLRLTWSELFVLNAAQCSMPLHVAPLLAAAGLHASPMSADRVVAFMDHIRIFQEQVEKLKALHVDSAEYSCLKAIVLFTSDACGLSDVAHVESLQEKSQCALEEYVRSQYPNQPTRFGKLLLRLPSLRTVSSSVIEQLFFVRLVGKTPIETLIRDMLLSGSSFNWPYMAIQ
B3: hMR: Mineralocorticoid Receptor (NR3C2, MR), cDNA driver (protein, UniProt P08235 1-984, looked up)
Mineralocorticoid receptor: METKGYHSLPEGLDMERRWGQVSQAVERSSLGPTERTDENNYMEIVNVSCVSGAIPNNSTQGSSKEKQELLPCLQQDNNRPGILTSDIKTELESKELSATVAESMGLYMDSVRDADYSYEQQNQQGSMSPAKIYQNVEQLVKFYKGNGHRPSTLSCVNTPLRSFMSDSGSSVNGGVMRAVVKSPIMCHEKSPSVCSPLNMTSSVCSPAGINSVSSTTASFGSFPVHSPITQGTPLTCSPNVENRGSRSHSPAHASNVGSPLSSPLSSMKSSISSPPSHCSVKSPVSSPNNVTLRSSVSSPANINNSRCSVSSPSNTNNRSTLSSPAASTVGSICSPVNNAFSYTASGTSAGSSTLRDVVPSPDTQEKGAQEVPFPKTEEVESAISNGVTGQLNIVQYIKPEPDGAFSSSCLGGNSKINSDSSFSVPIKQESTKHSCSGTSFKGNPTVNPFPFMDGSYFSFMDDKDYYSLSGILGPPVPGFDGNCEGSGFPVGIKQEPDDGSYYPEASIPSSAIVGVNSGGQSFHYRIGAQGTISLSRSARDQSFQHLSSFPPVNTLVESWKSHGDLSSRRSDGYPVLEYIPENVSSSTLRSVSTGSSRPSKICLVCGDEASGCHYGVVTCGSCKVFFKRAVEGQHNYLCAGRNDCIIDKIRRKNCPACRLQKCLQAGMNLGARKSKKLGKLKGIHEEQPQQQQPPPPPPPPQSPEEGTTYIAPAKEPSVNTALVPQLSTISRALTPSPVMVLENIEPEIVYAGYDSSKPDTAENLLSTLNRLAGKQMIQVVKWAKVLPGFKNLPLEDQITLIQYSWMCLSSFALSWRSYKHTNSQFLYFAPDLVFNEEKMHQSAMYELCQGMHQISLQFVRLQLTFEEYTIMKVLLLLSTIPKDGLKSQAAFEEMRTNYIKELRKMVTKCPNNSGQSWQRFYQLTKLLDSMHDLVSDLLEFCFYTFRESHALKVEFPAMLVEIISDQLPKVESGNAKPLYFHRK

test system: hPPARg1 promoter; experiment: NHR-promoter luciferase screen, hPPARg1 promoter; type: cell-based, human; conditions: PPARG1 promoter; hormone receptor with or without its ligand
Summary of the method: (§1)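 CV-1 cells were co-transfected with 50 ng NHR (homodimer or NHR/RXR heterodimer), 100 ng promoter-luciferase construct and 50 ng LacZ. Luciferase was normalized to LacZ and to a no-NHR/no-ligand control.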

Molecule | Luc. act., normalized to lacZ
B1 | 32.5
B2 | 43.9
B3 | 56.4

same assay, conditions: PPARG1 promoter; hormone receptor with or without its ligand; relative to control

Molecule | Normalized Luc. act., normalized to control
B1 | 0.5
B2 | 0.6
B3 | 0.8

same assay, conditions: Table 6d; luciferase activity relative to control (control = 1.00)

Molecule | Results of assays of transcription factor (+/- ligand) with hPPARg1
B1 | 0.47
B2 | 0.64
B3 | 0.82

test system: hPPARg2 promoter; experiment: NHR-promoter luciferase screen, hPPARg2 promoter; type: cell-based, human; conditions: PPARG2 promoter; hormone receptor with or without its ligand
Summary of the method: as §1

Molecule | Luc. act., normalized to lacZ
B1 | 1.7
B2 | 1.5
B3 | 1.0

same assay, conditions: PPARG2 promoter; hormone receptor with or without its ligand; relative to control

Molecule | Normalized Luc. act., normalized to control
B1 | 0.8
B2 | 0.8
B3 | 0.5

same assay, conditions: Table 6d; luciferase activity relative to control (control = 1.00)

Molecule | Results of assays of transcription factor (+/- ligand) with hPPARg2
B1 | 0.85
B2 | 0.76
B3 | 0.51

test system: mPer1 promoter; experiment: NHR-promoter luciferase screen, mPer1 promoter; type: cell-based, mouse; conditions: Per1 promoter reporter; co-transfected HR, with or without its ligand
Summary of the method: as §1

Molecule | Luc. act., normalized to lacZ
B1 | 159.0
B2 | 346.6
B3 | 351.9

same assay, conditions: Per1 promoter reporter; co-transfected HR, with or without its ligand; relative to control

Molecule | Normalized Luc. act., normalized to control
B1 | 1.1
B2 | 2.4
B3 | 2.4

same assay, conditions: mPer1 promoter-luciferase, CV-1 cells, NHR +/- ligand, control = 1.00

Molecule | luciferase activity normalized to lacZ activity and to a control, mPer1
B1 | 1.10
B2 | 2.41
B3 | 2.44

test system: mLeptin promoter; experiment: NHR-promoter luciferase screen, mLeptin promoter; type: cell-based, mouse; conditions: Table 7; mLeptin
Summary of the method: as §1

Molecule | Luc. act., normalized to lacZ | Normalized Luc. act., normalized to control
B1 | 2.7 | 0.9
B2 | 3.8 | 1.3
B3 | 1.7 | 0.6

same assay, conditions: Table 6d; luciferase activity relative to control (control = 1.00)

Molecule | Results of assays of transcription factor (+/- ligand) with mLeptin
B1 | 0.92
B2 | 1.31
B3 | 0.57

test system: mNPY promoter; experiment: NHR-promoter luciferase screen, mNPY promoter; type: cell-based, mouse; conditions: Table 6d; luciferase activity relative to control (control = 1.00)
Summary of the method: as §1

Molecule | Results of assays of transcription factor (+/- ligand) with mNPY
B1 | 0.48
B2 | 0.65
B3 | 0.58

same assay, conditions: mNPY promoter; HR component with or without ligand

Molecule | Luc. act., normalized to lacZ
B1 | 40.6
B2 | 54.7
B3 | 48.9

same assay, conditions: mNPY promoter; HR component with or without ligand; relative to control

Molecule | Normalized Luc. act., normalized to control
B1 | 0.5
B2 | 0.7
B3 | 0.6

Reference: patent US20110263454A1, “Methods of Identifying Functional Characteristics of Promoters, Transcription Modifying Proteins and Transcription Modulating Agents” (Salk Institute for Biological Studies, priority 2008, published 2011)
